The results in this text go back to US20250262210A1 (TRUSTEES OF COLUMBIA UNIVERSITY IN THE CITY OF NEW YORK, published 2025).

The target of one assay is T1, LZTR1 R810W-FLAG (human, UniProt Q8N653 1-840).
T1 construct: Stably expressed in U87 cells by lentivirus; also called LZTR1-FLAG-R810W; LZTR1 RW; not shown: FLAG tag
T1 sequence (looked up): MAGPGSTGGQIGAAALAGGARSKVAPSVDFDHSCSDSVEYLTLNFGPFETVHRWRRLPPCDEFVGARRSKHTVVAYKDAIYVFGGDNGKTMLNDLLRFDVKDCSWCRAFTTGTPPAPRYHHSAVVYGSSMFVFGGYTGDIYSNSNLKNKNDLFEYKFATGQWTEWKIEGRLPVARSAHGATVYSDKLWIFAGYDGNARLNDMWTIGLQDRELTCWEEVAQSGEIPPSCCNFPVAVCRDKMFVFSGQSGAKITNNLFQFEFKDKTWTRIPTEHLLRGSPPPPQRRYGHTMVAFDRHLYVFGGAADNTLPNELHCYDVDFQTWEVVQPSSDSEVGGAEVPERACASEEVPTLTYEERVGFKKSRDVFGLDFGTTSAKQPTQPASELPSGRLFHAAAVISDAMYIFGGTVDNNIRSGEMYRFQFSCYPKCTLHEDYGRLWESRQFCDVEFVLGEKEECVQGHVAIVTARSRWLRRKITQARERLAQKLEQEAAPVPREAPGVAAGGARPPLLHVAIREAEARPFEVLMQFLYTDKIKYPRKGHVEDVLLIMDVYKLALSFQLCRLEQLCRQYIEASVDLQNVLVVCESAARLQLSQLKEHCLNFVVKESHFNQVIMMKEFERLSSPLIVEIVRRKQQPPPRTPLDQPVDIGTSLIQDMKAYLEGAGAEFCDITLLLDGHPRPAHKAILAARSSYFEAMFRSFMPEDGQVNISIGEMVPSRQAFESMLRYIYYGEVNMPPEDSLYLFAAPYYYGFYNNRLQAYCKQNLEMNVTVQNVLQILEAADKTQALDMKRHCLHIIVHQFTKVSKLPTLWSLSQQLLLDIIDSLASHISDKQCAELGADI
In words: IP/MS, LZTR1 R810W-FLAG, U87. The method, then:
(§1) Lysates were immunoprecipitated with FLAG affinity matrix and eluted with FLAG peptide. […] Protein gel slices were excised and in-gel digestion performed as previously described (83), with minor modifications. Gel slices were washed with 1:1 A cetonitrile and 100 mM ammonium bicarbonate for 30 min then dehydrated with 100% acetonitrile for 10 min until shrunk. The excess acetonitrile was then removed and the slices dried in speed-vacuum at room temperature for 10 min. Gel slices were reduced with 5 mM DTT for 30 min at 56° C. in an air thermostat, cooled down to room temperature, and alkylated with 11 mM IAA for 30 min with no light. Gel slices were then washed with 100 mM of ammonium bicarbonate and 100% acetonitrile for 10 min each. Excess acetonitrile was removed and dried in a speed-vacuum for 10 min at room temperature and the gel slices were re-hydrated in a solution of 25 ng/μl trypsin in 50 mM ammonium bicarbonate for 30 min on ice and digested overnight at 37° C. in an air thermostat. Digested peptides were collected and further extracted from gel slices in extraction buffer (1:2 ratio by volume of 5% formic acid:acetonitrile) at high speed, shaking in an air thermostat. The supernatants from both extractions were combined and dried in a speed-vacuum. Peptides were dissolved in 3% acetonitrile/0.1% formic acid. Desalted peptides were injected in an EASY-Spray™ PepMap™ RSLC C18 50 cm×[…] column (Thermo Scientific) connected to an Orbitrap Fusion™ Tribrid™ (Thermo Scientific) as described in “Global ubiquitylation enrichment” section. The following modifications were used for protein identification and quantification: oxidation of methionine (M), acetylation of the protein N-terminus, and deamination for asparagine or glutamine (NQ). Results obtained from MaxQuant were assembled in Scaffold for data visualization.

The target of a further assay is T2, LZTR1-FLAG (human, UniProt Q8N653 1-840).
T2 construct: Expressed in HEK 293T, HeLa or U87 cells; used as cell lysate; also called LZTR1 wild type-FLAG; LZTR1 WT; not shown: FLAG tag at the C-terminus
T2 sequence (looked up): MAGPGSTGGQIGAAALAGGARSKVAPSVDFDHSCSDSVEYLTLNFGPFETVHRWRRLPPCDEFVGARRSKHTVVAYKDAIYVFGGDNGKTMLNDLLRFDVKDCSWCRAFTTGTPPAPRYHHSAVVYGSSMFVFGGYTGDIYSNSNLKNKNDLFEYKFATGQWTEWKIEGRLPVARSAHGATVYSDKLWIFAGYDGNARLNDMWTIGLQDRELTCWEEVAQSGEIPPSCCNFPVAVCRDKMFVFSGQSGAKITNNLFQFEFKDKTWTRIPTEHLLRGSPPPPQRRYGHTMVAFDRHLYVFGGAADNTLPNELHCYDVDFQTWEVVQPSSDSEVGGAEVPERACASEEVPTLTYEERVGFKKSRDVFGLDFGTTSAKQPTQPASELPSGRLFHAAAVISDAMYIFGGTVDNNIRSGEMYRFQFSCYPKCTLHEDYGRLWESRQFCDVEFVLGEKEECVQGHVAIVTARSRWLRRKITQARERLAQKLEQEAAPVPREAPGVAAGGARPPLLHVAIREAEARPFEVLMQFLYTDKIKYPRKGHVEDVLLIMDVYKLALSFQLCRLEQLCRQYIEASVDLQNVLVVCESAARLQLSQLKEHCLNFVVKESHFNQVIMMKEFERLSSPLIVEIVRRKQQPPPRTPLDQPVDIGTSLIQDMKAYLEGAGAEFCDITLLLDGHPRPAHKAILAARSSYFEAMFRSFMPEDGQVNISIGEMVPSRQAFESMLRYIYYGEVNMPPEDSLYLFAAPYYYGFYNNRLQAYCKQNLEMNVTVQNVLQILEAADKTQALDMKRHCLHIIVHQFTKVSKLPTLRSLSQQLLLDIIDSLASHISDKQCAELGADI
In words: IP/MS, LZTR1 wild type-FLAG, U87. The method, then: as §1

B1: APPL1 (other, human, UniProt Q9UKG1 1-709, looked up)
chain: MPGIDKLPIEETLEDSPQTRSLLGVFEEDATAISNYMNQLYQAMHRIYDAQNELSAATHLTSKLLKEYEKQRFPLGGDDEVMSSTLQQFSKVIDELSSCHAVLSTQLADAMMFPITQFKERDLKEILTLKEVFQIASNDHDAAINRYSRLSKKRENDKVKYEVTEDVYTSRKKQHQTMMHYFCALNTLQYKKKIALLEPLLGYMQAQISFFKMGSENLNEQLEEFLANIGTSVQNVRREMDSDIETMQQTIEDLEVASDPLYVPDPDPTKFPVNRNLTRKAGYLNARNKTGLVSSTWDRQFYFTQGGNLMSQARGDVAGGLAMDIDNCSVMAVDCEDRRYCFQITSFDGKKSSILQAESKKDHEEWICTINNISKQIYLSENPEETAARVNQSALEAVTPSPSFQQRHESLRPAAGQSRPPTARTSSSGSLGSESTNLAALSLDSLVAPDTPIQFDIISPVCEDQPGQAKAFGQGGRRTNPFGESGGSTKSETEDSILHQLFIVRFLGSMEVKSDDHPDVVYETMRQILAARAIHNIFRMTESHLLVTCDCLKLIDPQTQVTRLTFPLPCVVLYATHQENKRLFGFVLRTSSGRSESNLSSVCYIFESNNEGEKICDSVGLAKQIALHAELDRRASEKQKEIERVKEKQQKELNKQKQIEKDLEEQSRLIAASSRPNQASSEGQFVVLSSSQSEESDLGEGGKKRESEA
On to B1, for which the binding result with LZTR1 R810W-FLAG and in the assay with LZTR1-FLAG was “binds” in each case.

B2: ATG13 (other, human, UniProt O75143 1-517, looked up)
chain: METDLNSQDRKDLDKFIKFFALKTVQVIVQARLGEKICTRSSSSPTGSDWFNLAIKDIPEVTHEAKKALAGQLPAVGRSMCVEISLKTSEGDSMELEIWCLEMNEKCDKEIKVSYTVYNRLSLLLKSLLAITRVTPAYRLSRKQGHEYVILYRIYFGEVQLSGLGEGFQTVRVGTVGTPVGTITLSCAYRINLAFMSTRQFERTPPIMGIIIDHFVDRPYPSSSPMHPCNYRTAGEDTGVIYPSVEDSQEVCTTSFSTSPPSQLSSSRLSYQPAALGVGSADLAYPVVFAAGLNATHPHQLMVPGKEGGVPLAPNQPVHGTQADQERLATCTPSDRTHCAATPSSSEDTETVSNSSEGRASPHDVLETIFVRKVGAFVNKPINQVTLTSLDIPFAMFAPKNLELEDTDPMVNPPDSPETESPLQGSLHSDGSSGGSSGNTHDDFVMIDFKPAFSKDDILPMDLGTFYREFQNPPQLSSLSIDIGAQSMAEDLDSLPEKLAVHEKNVREFDAFVETLQ
Turning to B2, the binding result with LZTR1 R810W-FLAG and in the assay with LZTR1-FLAG was “binds” in each case.

B3: ATF6B (other, human, UniProt Q99941 2-703, looked up)
chain: AELMLLSEIADPTRFFTDNLLSPEDWGLQNSTLYSGLDEVAEEQTQLFRCPEQDVPFDGSSLDVGMDVSPSEPPWELLPIFPDLQVKSEPSSPCSSSSLSSESSRLSTEPSSEALGVGEVLHVKTESLAPPLCLLGDDPTSSFETVQINVIPTSDDSSDVQTKIEPVSPCSSVNSEASLLSADSSSQAFIGEEVLEVKTESLSPSGCLLWDVPAPSLGAVQISMGPSLDGSSGKALPTRKPPLQPKPVVLTTVPMPSRAVPPSTTVLLQSLVQPPPVSPVVLIQGAIRVQPEGPAPSLPRPERKSIVPAPMPGNSCPPEVDAKLLKRQQRMIKNRESACQSRRKKKEYLQGLEARLQAVLADNQQLRRENAALRRRLEALLAENSELKLGSGNRKVVCIMVFLLFIAFNFGPVSISEPPSAPISPRMNKGEPQPRRHLLGFSEQEPVQGVEPLQGSSQGPKEPQPSPTDQPSFSNLTAFPGGAKELLLRDLDQLFLSSDCRHFNRTESLRLADELSGWVQRHQRGRRKIPQRAQERQKSQPRKKSPPVKAVPIQPPGPPERDSVGQLQLYRHPDRSQPAFLDAIDRREDTFYVVSFRRDHLLLPAISHNKTSRPKMSLVMPAMAPNETLSGRGAPGDYEEMMQIECEVMDTRVIHIKTSTVPPSLRKQPSPTPGNATGGPLPVSAASQAHQASHQPLYLNHP
For B3, the binding result with LZTR1 R810W-FLAG and with LZTR1-FLAG was “binds” each time.

B4: ATF6 (other, human, UniProt P18850 1-670, looked up)
chain: MGEPAGVAGTMESPFSPGLFHRLDEDWDSALFAELGYFTDTDELQLEAANETYENNFDNLDFDLDLMPWESDIWDINNQICTVKDIKAEPQPLSPASSSYSVSSPRSVDSYSSTQHVPEELDLSSSSQMSPLSLYGENSNSLSSAEPLKEDKPVTGPRNKTENGLTPKKKIQVNSKPSIQPKPLLLPAAPKTQTNSSVPAKTIIIQTVPTLMPLAKQQPIISLQPAPTKGQTVLLSQPTVVQLQAPGVLPSAQPVLAVAGGVTQLPNHVVNVVPAPSANSPVNGKLSVTKPVLQSTMRNVGSDIAVLRRQQRMIKNRESACQSRKKKKEYMLGLEARLKAALSENEQLKKENGTLKRQLDEVVSENQRLKVPSPKRRVVCVMIVLAFIILNYGPMSMLEQDSRRMNPSVSPANQRRHLLGFSAKEAQDTSDGIIQKNSYRYDHSVSNDKALMVLTEEPLLYIPPPPCQPLINTTESLRLNHELRGWVHRHEVERTKSRRMTNNQQKTRILQGALEQGSNSQLMAVQYTETTSSISRNSGSELQVYYASPRSYQDFFEAIRRRGDTFYVVSFRRDHLLLPATTHNKTTRPKMSIVLPAININENVINGQDYEVMMQIDCQVMDTRILHIKSSSVPPYLRDQQRNQTNTFFGSPPAATEATHVVSTIPESLQ
In the case of B4, the binding result with LZTR1 R810W-FLAG and with LZTR1-FLAG was “binds” each time.

B5: ARMCX2 (other, human, UniProt Q7L311 1-632, looked up)
chain: MSRVRDAGCVAAGIVIGAGAWYCVYKYTRGRDQTKKRMAKPKNRAVAGTGARARAGLRAGFTIDLGSGFSPPTPVRAEAEDRAQDEASALDTVGAEAVAPAASSAEAQSGAGSQAQEADGAGVGPKAESVVGAAMASAIAPPPGVTEALGAAEAPAMAGAPKVAEAPREAETSRAAVPPGTVVPTEAAAPTEVTEGPGVAAPTKVAEAPGVASPTEAAEAPVPATPTGAAAPTGAAESPGTSGSPRTAVVPGTSAAKKATPGAHTGAIPKATSATGAVPKGGGKGVTRSRNGGKGKGKKSKVEVDELGMGFRPGDGAAAAAAASANGGQAFLAEVPDSEEGESGWTDTESDSDSEPETQRRGRGRRPVAMQKRPFPYEIDEILGVRDLRKVLALLQKSDDPFIQQVALLTLSNNANYSCNQETIRKLGGLPIIANMINKTDPHIKEKALMAMNNLSENYENQGRLQVYMNKVMDDIMASNLNSAVQVVGLKFLTNMTITNDYQHLLVNSIANFFRLLSQGGGKIKVEILKILSNFAENPDMLKKLLSTQVPASFSSLYNSYVESEILINALTLFEIIYDNLRAEVFNYREFNKGSLFYLCTTSGVCVKKIRALANHHDLLVKVKVIKLVNKF
On to B5, for which the binding result with LZTR1 R810W-FLAG and with LZTR1-FLAG was “binds” each time.
